Source: publication PMC8834707, “Probing the Dynamics of Streptococcus pyogenes Cas9 Endonuclease Bound to the sgRNA Complex Using Hydrogen-Deuterium Exchange Mass Spectrometry”

Target: Cas9 (SpCas9) (Streptococcus pyogenes, UniProt Q99ZW2 1-1368)
Test: HDX-MS; protein:RNA 1:10 molar ratio; sgRNA without DNA; 9 peptides with reduced and 21 with increased deuterium uptake on binding; HDX buffer, pH and temperature not given in the material (section 3.4 text absent); complex at 1:10 Cas9:sgRNA formed immediately before exchange, D2O incubation 1-480 min
Details: protein: recombinant; tags: His-tag removed with TEV protease; single-strand sgRNA with repeat-antirepeat and stem-loops

Sequence of Cas9 (SpCas9) (Q99ZW2 whole entry): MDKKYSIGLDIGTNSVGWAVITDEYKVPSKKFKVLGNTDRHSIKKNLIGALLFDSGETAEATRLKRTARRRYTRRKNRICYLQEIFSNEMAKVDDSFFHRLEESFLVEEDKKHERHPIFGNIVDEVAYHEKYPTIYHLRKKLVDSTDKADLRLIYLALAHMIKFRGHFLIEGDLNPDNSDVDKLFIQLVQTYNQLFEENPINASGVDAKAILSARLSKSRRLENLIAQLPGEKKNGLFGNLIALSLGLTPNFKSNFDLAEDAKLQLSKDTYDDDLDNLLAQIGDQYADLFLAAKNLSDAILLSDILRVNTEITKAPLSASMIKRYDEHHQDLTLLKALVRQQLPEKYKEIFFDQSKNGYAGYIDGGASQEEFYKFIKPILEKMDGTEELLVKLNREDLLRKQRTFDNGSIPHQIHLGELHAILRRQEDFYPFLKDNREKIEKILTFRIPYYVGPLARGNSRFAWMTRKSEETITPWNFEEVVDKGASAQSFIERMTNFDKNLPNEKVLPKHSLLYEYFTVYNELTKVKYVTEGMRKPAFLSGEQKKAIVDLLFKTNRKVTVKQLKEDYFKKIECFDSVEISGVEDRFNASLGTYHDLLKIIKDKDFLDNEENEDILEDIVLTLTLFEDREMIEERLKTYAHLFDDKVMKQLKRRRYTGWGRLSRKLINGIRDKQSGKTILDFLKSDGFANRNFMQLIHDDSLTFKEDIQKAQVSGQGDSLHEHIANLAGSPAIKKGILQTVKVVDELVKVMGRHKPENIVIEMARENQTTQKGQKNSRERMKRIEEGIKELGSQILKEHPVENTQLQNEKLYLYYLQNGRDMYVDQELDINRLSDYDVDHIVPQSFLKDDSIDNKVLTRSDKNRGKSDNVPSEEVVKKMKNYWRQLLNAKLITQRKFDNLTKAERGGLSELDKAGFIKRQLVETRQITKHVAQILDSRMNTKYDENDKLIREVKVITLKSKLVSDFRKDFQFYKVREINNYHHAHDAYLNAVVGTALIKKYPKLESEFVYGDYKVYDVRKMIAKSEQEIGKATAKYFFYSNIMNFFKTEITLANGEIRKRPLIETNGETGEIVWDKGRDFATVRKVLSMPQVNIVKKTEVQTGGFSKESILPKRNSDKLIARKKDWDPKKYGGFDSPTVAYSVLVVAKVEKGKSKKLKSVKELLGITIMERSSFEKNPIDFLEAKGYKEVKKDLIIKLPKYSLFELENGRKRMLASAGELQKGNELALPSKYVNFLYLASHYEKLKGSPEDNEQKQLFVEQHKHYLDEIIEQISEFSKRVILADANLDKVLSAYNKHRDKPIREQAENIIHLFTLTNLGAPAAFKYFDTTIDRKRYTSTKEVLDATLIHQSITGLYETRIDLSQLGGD

B1: sgRNA (103 nt) (structured_RNA)
RNA: GGUUGGACAUGCUCGACAUUCGUUUUAGAGCUAGAAAUAGCAAGUUAAAAUAAGGCUAGUCCGUUAUCAACUUGAAAAAGUGGCACCGAGUCGGUGCUUUUUU
B1: binds.
